Test results: the supplement of paper PMC7877785
± gives the uncertainty stated by the source.

Assay: self-splicing fitness, log relative to wild type (ln ratio); higher = more splicing; Tetrahymena group I intron in knt gene, E. coli kanamycin selection, DiMSum; sequences stand for … in CUCUCU…GGAGGGAAAAGUUAUCAGGCAUGCACCUGGUAGCUAGUCUUUAAACCAAUAGAUUGCAUCGGUUUAAAAGGCAAGACCGUCAAAUUGCGGGAAAGGGGUCAACAGCCGUUCAGUACCAAGUCUCAGGGGAAACUUUGAGAUGGCCUUGCAAAGGGUAUGGUAAUAAGCUGACGGACAUGGUCCUAACCACGCAGCCAAGUCCUAAGUCAACAGAUCUUCUGUUGAUAUGGAUGCAGUUCACAGACUAAAUGUCGGUCGGGGAAGAUGUAUUCUUCUCAUAAGAUAUAGUCGGACCUCUCCUUAAUGGGAGCUAGCGGAUGAAGUGAUGCAACACUGGAGCCGCUGGGAACUAAUUUGUAUGCGAAAGUAUAUUGAUUAGUUUUGGAGUACUCGUGGUCG
How it was run: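 Fitness was computed with DiMSum as the error-weighted combination of replicate fold changes, kanamycin versus none, each normalised to wild type. The library randomised all eight intron nucleotides of the P1ex region, with the intron placed in the knt kanamycin-resistance gene on pET-22b(+) in E. coli BL21(DE3). Six replicate transformations were grown overnight at 37°C or 30°C on LB agar with or without 25 μg/mL kanamycin, plus 100 μg/mL carbenicillin, 50 μM IPTG and 0.2% rhamnose. Pooled colonies were amplicon-sequenced on an Illumina HiSeq 2500.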

Sequence | self-splicing fitness (ln) (30 °C) | self-splicing fitness (ln) (37 °C)
CGAAAGCAAUAUUACGAACA | -1.92 ± 0.13 | -0.112 ± 0.12
CGAAAGCAAUAUUACGAACU | -1.25 ± 0.091 | 0.0371 ± 0.14
CGAAAGCAAUAUUACGAAUU | -4.27 ± 0.29 | -1.55 ± 0.14
CGAAAGCAAUAUUACGACUC | -2.84 ± 0.14 | -1.63 ± 0.14
CGAAAGCAAUAUUACGAGGA | -3.36 ± 0.25 | -1.13 ± 0.21
CGAAAGCAAUAUUACGAGUA | -3.07 ± 0.19 | -2.36 ± 0.18
CGAAAGCAAUAUUACGAUAU | -3.42 ± 0.28 | -1.27 ± 0.2
CGAAAGCAAUAUUACGCAAU | -3 ± 0.13 | -3.64 ± 0.26
CGAAAGCAAUAUUACGCACG | -3.27 ± 0.17 | -2.03 ± 0.15
CGAAAGCAAUAUUACGCAGC | -3 ± 0.24 | -3.68 ± 0.33
CGAAAGCAAUAUUACGCCAA | -2.65 ± 0.2 | -2.41 ± 0.22
CGAAAGCAAUAUUACGCCUG | -0.16 ± 0.095 | 0.392 ± 0.11
CGAAAGCAAUAUUACGCGCC | -1.85 ± 0.21 | 0.0231 ± 0.24
CGAAAGCAAUAUUACGCGCU | -2.08 ± 0.13 | -1.6 ± 0.12
CGAAAGCAAUAUUACGCUGA | -3.09 ± 0.22 | -1.54 ± 0.19
CGAAAGCAAUAUUACGCUUU | -3.54 ± 0.35 | -2.7 ± 0.41
CGAAAGCAAUAUUACGGAAA | -2.9 ± 0.28 | -2.49 ± 0.22
CGAAAGCAAUAUUACGGACG | -2.73 ± 0.21 | -2.25 ± 0.22
CGAAAGCAAUAUUACGGCAA | -1.82 ± 0.11 | -1.03 ± 0.1
CGAAAGCAAUAUUACGGGAA | -2.17 ± 0.4 | -2.08 ± 0.26
CGAAAGCAAUAUUACGGUAA | -2.13 ± 0.16 | -1.56 ± 0.15
CGAAAGCAAUAUUACGGUCA | -0.303 ± 0.12 | -0.586 ± 0.14
CGAAAGCAAUAUUACGUAGA | -2.43 ± 0.092 | -1.49 ± 0.12
CGAAAGCAAUAUUACGUAUU | -3.3 ± 0.15 | -1.51 ± 0.13

Sequence | self-splicing fitness (ln) (30 °C) | self-splicing fitness (ln) (37 °C)
CGAAAGCAAUAUUACGUCCA | -1.26 ± 0.12 | -0.276 ± 0.13
CGAAAGCAAUAUUACGUCGU | -3.33 ± 0.14 | -2.36 ± 0.18
CGAAAGCAAUAUUACGUCUC | -2.71 ± 0.42 | -1.15 ± 0.26
CGAAAGCAAUAUUACGUGCU | -3.73 ± 0.18 | -2.41 ± 0.18
CGAAAGCAAUAUUACGUGUG | -0.273 ± 0.054 | 0.27 ± 0.066
CGAAAGCAAUAUUACGUUCA | -0.312 ± 0.074 | 0.0231 ± 0.091
CGAAAGCAAUAUUACGUUGC | -4.09 ± 0.17 | -3.23 ± 0.2
CGACAGCAAUAUUACGACUU | -1.1 ± 0.059 | -0.881 ± 0.066
CGACAGCAAUAUUACGCAUA | -3.03 ± 0.18 | -2.33 ± 0.18
CGACAGCAAUAUUACGCCUG | -0.901 ± 0.066 | -0.0701 ± 0.069
CGACAGCAAUAUUACGCGAU | -2.8 ± 0.22 | -2.46 ± 0.28
CGACAGCAAUAUUACGGACA | -1.24 ± 0.11 | -0.761 ± 0.12
CGACAGCAAUAUUACGGCCG | -2.22 ± 0.12 | -1.21 ± 0.12
CGACAGCAAUAUUACGGGAG | -3.21 ± 0.15 | -1.97 ± 0.13
CGACAGCAAUAUUACGGUGU | -3.48 ± 0.14 | -2.77 ± 0.16
CGACAGCAAUAUUACGUAAC | -4.37 ± 0.23 | -2.03 ± 0.31
CGACAGCAAUAUUACGUACU | -1.26 ± 0.082 | -0.578 ± 0.089
CGACAGCAAUAUUACGUCCU | -0.518 ± 0.072 | -0.311 ± 0.078
CGACAGCAAUAUUACGUGCG | -4.12 ± 0.17 | -2.5 ± 0.19
CGACAGCAAUAUUACGUUUG | -3.09 ± 0.15 | -1.19 ± 0.11
CGAGAGCAAUAUUACGAAUU | -2.77 ± 0.29 | –
CGAGAGCAAUAUUACGAUUC | -2.96 ± 0.38 | -1.19 ± 0.29
CGAGAGCAAUAUUACGCACA | -2.47 ± 0.27 | –
CGAGAGCAAUAUUACGCACU | -2.06 ± 0.2 | -1.89 ± 0.23
